Results reported in PMC9481871, “Anti-TGF-β1 aptamer enhances therapeutic effect of tyrosine kinase inhibitor, gefitinib, on non-small cell lung cancer in xenograft model”.

Columns and labels:
Experiment in all cases: SPR; 500 nM protein; aptamer immobilized; SPR (Biacore): 145 mM NaCl, 5.4 mM KCl, 0.8 mM MgCl2, 1.8 mM CaCl2, 20 mM Tris-HCl pH 7.6, 0.05% Tween 20; temperature not given
Settings in all cases: protein: recombinant; chain copies: 2
human TGF-β2 = molecular target: T1, human TGF-β2 (Homo sapiens, UniProt P61812 303-414)
T1 sequence: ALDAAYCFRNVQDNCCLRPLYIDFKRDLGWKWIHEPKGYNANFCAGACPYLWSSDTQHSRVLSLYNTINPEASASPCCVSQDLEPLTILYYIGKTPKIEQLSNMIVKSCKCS

human TGF-β3 = molecular target: T2, human TGF-β3 (Homo sapiens, UniProt P10600 301-412)
T2 sequence: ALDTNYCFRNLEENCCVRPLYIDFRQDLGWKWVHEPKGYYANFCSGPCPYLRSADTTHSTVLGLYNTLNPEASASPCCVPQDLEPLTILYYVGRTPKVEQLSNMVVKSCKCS

human TGF-β1 (active) = human TGF-β1 (active) (Homo sapiens, UniProt P01137 279-390)
mouse TGF-β1 (active) = mouse TGF-β1 (active) (Mus musculus, UniProt P04202 279-390)
mouse TGF-β1 (active), sequence (P04202 279-390): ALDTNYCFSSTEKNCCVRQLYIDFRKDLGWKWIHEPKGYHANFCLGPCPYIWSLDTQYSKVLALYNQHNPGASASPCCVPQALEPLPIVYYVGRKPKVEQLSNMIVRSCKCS

human TGF-β1 (active), sequence (P01137 279-390): as the sequence (P04202 279-390) above, with S75A counted along it

B1: APT-β1 (structured_RNA)
RNA: GGCAUAAGGGAGGGGAGACUUGUGGAGGGCAAG
modifications: 2'-fluoro pyrimidines (SELEX with 2'-F-CTP and 2'-F-UTP); parent of APT-β1-OMe without 2'-OMe
B1: no binding (human TGF-β2); no binding (human TGF-β3); binds (human TGF-β1 (active)). B1: binds (mouse TGF-β1 (active)).
